Target: the molecule itself
Assay: SEC

B1: EspB_(1-338), N-terminal EspB fragment (domain or fragment)
chain: MTQSQTVTVDQQEILNRANEVEAPMADPPTDVPITPCELTAAKNAAQQLVLSADNMREYLAAGAKERQRLATSLRNAAKAYGEVDEEAATALDNDGEGTVQAESAGAVGGDSSAELTDTPRVATAGEPNFMDLKEAARKLETGDQGASLAHFADGWNTFNLTLQGDVKRFRGFDNWEGDAATACEASLDQQRQWILHMAKLSAAMAKQAQYVAQLHVWARREHPTYEDIVGLERLYAENPSARDQILPVYAEYQQRSEKVLTEYNNKAALEPVNPPKPPPAIKIDPPPPPQEQGLIPGFLMPPSDGSGVTPGTGMPAAPMVPPTGSPGGGLPADTAAQ
Question: Does B1 bind?
Answer: binds
